Key:
[1] = target: recombinant NA (rNA) of avian A/turkey/Turkey/1/2005 (H5N1): 6xHis-tag, tetrabrachion tetramerization domain, two glycines, NA amino acids 51-449 (Staphylothermus marinus | influenza A virus, avian A/turkey/Turkey/1/2005 (H5N1)); experiment: SEC; […], Tris 50 mM, 150 mM NaCl pH 8, CaCl2 10 mM; […]
[2] = target: recombinant NA (rNA) of avian A/turkey/Turkey/1/2005 (H5N1): 6xHis-tag, tetrabrachion tetramerization domain, two glycines, NA amino acids 51-449 (Staphylothermus marinus | influenza A virus, avian A/turkey/Turkey/1/2005 (H5N1)); experiment: negative-stain TEM with single-particle 3D reconstruction
[3] = target: recombinant NA (rNA) of swine A/California/07/2009 (H1N1): 6xHis-tag, tetrabrachion tetramerization domain, two glycines, NA amino acids 71-469 (Staphylothermus marinus | influenza A virus, swine A/California/07/2009 (H1N1)); experiment: SEC; […], Tris 50 mM, 150 mM NaCl pH 8, CaCl2 10 mM; […]

Substance	stoichiometry N [1]	stoichiometry N [2]	stoichiometry N [3]
recombinant NA (rNA) of avian A/turkey/Turkey/1/2005 (H5N1): 6xHis-tag, tetrabrachion tetramerization domain, two glycines, NA amino acids 51-449 (enzyme)	4	4	–
recombinant NA (rNA) of swine A/California/07/2009 (H1N1): 6xHis-tag, tetrabrachion tetramerization domain, two glycines, NA amino acids 71-469 (enzyme)	–	–	4

From paper PMC4539205
